Data on 3 sequences can be found in the supplement of paper PMC6379048.

Test in all cases: EC50 of free RNA motif oligo competing protein binding to immobilised probe
Data set [1] deals with P4HA1 (UniProt P13674). In short, it runs like this: (§1)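 HEK293-FT lysate (2.5 mg protein/well) was pre-incubated 1 h at 4°C with free RNA oligos (0 nM to 30 μM), then 30 min at 4°C with the same 5′-amino-C6 oligos coupled to NHS-Sepharose beads. Bound proteins were quantified by label-free LC-MS/MS in three biological replicates and two independent experiments, and normalised to the water control. EC50 came from a four-parameter log-logistic fit; Kd is EC50 times a protein-dependent depletion factor.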

For data set [2], the target named is RPL7 (UniProt P18124). The essentials: as §1
Data set [3] addresses T1, MCM4 (UniProt P33991).
T1 sequence: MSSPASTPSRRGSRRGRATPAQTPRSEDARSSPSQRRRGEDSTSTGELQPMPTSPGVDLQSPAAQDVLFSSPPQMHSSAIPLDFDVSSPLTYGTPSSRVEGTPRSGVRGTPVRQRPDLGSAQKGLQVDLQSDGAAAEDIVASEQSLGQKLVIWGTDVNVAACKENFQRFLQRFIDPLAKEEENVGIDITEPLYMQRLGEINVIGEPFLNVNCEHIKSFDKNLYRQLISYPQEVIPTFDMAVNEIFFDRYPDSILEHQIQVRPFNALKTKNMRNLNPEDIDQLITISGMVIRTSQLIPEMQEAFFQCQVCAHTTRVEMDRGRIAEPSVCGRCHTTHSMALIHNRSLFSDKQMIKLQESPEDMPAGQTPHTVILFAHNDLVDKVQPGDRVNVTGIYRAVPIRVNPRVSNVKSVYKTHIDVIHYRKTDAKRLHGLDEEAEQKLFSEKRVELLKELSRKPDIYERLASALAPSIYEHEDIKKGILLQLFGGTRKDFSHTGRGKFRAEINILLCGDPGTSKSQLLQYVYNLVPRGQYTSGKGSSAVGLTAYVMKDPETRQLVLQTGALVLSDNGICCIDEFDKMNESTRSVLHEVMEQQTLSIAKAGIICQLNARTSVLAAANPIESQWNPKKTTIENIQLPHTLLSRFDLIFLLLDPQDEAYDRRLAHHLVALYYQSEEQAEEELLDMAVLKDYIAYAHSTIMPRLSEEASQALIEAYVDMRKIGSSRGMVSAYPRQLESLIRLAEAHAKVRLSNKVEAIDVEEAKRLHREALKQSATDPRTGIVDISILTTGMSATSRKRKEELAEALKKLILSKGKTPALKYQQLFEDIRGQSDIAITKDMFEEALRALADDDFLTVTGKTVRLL
In short, it runs like this:
as §1

Data set [4] deals with T2, SRSF4 (UniProt Q08170).
T2 sequence: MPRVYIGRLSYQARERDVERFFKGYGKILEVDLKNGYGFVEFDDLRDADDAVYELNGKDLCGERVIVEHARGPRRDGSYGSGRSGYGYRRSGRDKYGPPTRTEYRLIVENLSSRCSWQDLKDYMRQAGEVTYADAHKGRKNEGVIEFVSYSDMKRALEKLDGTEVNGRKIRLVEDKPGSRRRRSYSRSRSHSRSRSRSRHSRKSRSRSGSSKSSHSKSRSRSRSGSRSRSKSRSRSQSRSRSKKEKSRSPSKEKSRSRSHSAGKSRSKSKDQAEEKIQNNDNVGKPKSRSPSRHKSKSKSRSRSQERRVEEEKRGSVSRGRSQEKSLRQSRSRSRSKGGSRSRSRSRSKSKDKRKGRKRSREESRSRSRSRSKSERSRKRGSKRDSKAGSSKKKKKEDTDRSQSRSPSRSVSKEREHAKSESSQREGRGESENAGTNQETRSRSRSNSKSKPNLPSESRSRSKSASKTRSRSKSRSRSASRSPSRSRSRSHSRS
In short, it runs like this: as §1

In data set [5] the target is RPS3 (UniProt P23396). The essentials:
as §1

For data set [6], the target named is RPS12 (UniProt P25398). The essentials:
as §1

For data set [7], the target named is T3, CWF19L1 (UniProt Q69YN2).
T3 sequence: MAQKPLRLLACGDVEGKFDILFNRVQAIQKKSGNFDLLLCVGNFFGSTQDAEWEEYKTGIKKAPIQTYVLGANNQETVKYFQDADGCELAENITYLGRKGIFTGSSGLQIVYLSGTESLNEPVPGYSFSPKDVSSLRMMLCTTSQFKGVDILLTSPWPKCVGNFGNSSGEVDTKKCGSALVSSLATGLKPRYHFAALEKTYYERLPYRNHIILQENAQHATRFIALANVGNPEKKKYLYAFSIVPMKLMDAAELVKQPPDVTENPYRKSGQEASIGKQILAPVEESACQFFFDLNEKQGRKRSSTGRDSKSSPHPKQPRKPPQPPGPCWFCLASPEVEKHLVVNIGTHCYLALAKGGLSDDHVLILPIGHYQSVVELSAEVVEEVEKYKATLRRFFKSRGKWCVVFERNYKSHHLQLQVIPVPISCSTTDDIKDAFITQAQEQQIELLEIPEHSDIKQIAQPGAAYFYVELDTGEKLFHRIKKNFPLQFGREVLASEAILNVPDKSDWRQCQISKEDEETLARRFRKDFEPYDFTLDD
The essentials:
as §1

Chain of P4HA1 (P13674 whole entry): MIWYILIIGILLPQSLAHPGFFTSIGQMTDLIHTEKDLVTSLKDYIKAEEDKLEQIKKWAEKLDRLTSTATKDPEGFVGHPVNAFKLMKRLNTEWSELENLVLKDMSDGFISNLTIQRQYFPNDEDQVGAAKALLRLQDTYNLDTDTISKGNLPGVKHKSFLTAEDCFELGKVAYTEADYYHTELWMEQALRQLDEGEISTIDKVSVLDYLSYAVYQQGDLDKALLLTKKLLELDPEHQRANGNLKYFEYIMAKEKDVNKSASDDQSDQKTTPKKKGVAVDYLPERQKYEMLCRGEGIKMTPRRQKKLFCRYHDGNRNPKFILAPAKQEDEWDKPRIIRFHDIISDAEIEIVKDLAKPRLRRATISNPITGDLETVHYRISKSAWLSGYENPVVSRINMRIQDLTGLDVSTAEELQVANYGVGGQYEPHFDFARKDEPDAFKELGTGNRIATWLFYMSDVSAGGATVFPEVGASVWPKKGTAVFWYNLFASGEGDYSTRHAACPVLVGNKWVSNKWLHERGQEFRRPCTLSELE

A word on the EC50: it is the concentration at which the effect is half-maximal. Low readings indicate a more potent agent, high ones a less potent agent. On to AAUAAA, for which the EC50 in data set [1] turned out to be 0.0656 µM; in data set [2], 6.98 µM; in data set [3], 0.05 µM.
With CUGUCCU, the EC50 came out at 0.978 µM in data set [4], 0.307 µM in data set [5] and 0.392 µM in data set [6].
On to UAUUUAU, for which the concentration for a half-maximal effect (EC50) in data set [7] stood at 3.16 µM.
